Assay results: patent US20240270846A1 (published 2024)
Changes are numbered by the printed parent chain. In names and notes the source's numbering stands.

B1: CE115HA000 G98D one-arm antibody (antibody, human IgG1, kappa, L234A L235A, N297A, name in Kabat numbering)
heavy: QVQLVESGGGVVQPGRSLRLSCAASGFTFSNAWMHWVRQAPGKGLEWVAQIKAKSNNYATYYAESVKGRFTISRDDSKNSLYLQMNSLKTEDTAVYYCRYVHYDAYYGVDAWGQGTTVTVSSASTKGPSVFPLAPSSKSTSGGTAALGCLVKDYFPEPVTVSWNSGALTSGVHTFPAVLQSSGLYSLSSVVTVPSSSLGTQTYICNVNHKPSNTKVDKKVEPKSCDKTHTCPPCPAPEAAGGPSVFLFPPKPKDTLMISRTPEVTCVVVDVSHEDPEVKFNWYVDGVEVHNAKTKPREEQYASTYRVVSVLTVLHQDWLNGKEYKCKVSNKALPAPIEKTISKAKGQPREPQVYTLPPSRCELTKNQVSLSCAVKGFYPSDIAVEWESNGQPENNYKTTPPVLDSDGSFFLVSKLTVDKSRWQQGNVFSCSVMHEALHNHYTQKSLSLSPDYKDDDDK
chain: EPKSSDKTHTCPPCPAPELLGGPSVFLFPPKPKDTLMISRTPEVTCVVVDVSHEDPEVKFNWYVDGVEVHNAKTKPREEQYNSTYRVVSVLTVLHQDWLNGKEYKCKVSNKALPAPIEKTISKAKGQPREPQVCTLPPSRDELTKNQVSLWCLVKGFYPSDIAVEWESNGQPENNYKTTPPVLDSDGSFFLYSKLTVDKSRWQQGNVFSCSVMHEALHNRYTQKSLSLSP
light: DIVMTQSPLSLPVTPGEPASISCRSSQSLVHSNRNTYLHWYQQKPGQAPRLLIYKVSNRFSGVPDRFSGSGSGTDFTLKISRVEAEDVGVYYCGQGTQVPYTFGQGTKLEIKRTVAAPSVFIFPPSDEQLKSGTASVVCLLNNFYPREAKVQWKVDNALQSGNSQESVTEQDSKDSTYSLSSTLTLSKADYEKHKVYACEVTHQGLSSPVTKSFNRGEC
notes: one-arm antibody
B2: CE115HA000 K75T one-arm antibody (antibody, human IgG1, kappa, L234A L235A, N297A, name in Kabat numbering)
heavy: B1 heavy with K78T, D104G
chain: B1 chain
light: B1 light
notes: one-arm antibody
B3: CE115HA000 K64E one-arm antibody (antibody, human IgG1, kappa, L234A L235A, N297A, name in Kabat numbering)
heavy: B1 heavy with K67E, D104G
chain: B1 chain
light: B1 light
notes: one-arm antibody
B4: CE115HA000 H96L one-arm antibody (antibody, human IgG1, kappa, L234A L235A, N297A, name in Kabat numbering)
heavy: B1 heavy with H102L, D104G
chain: B1 chain
light: B1 light
notes: one-arm antibody
B5: CE115HA000 G98T one-arm antibody (antibody, human IgG1, kappa, L234A L235A, N297A, name in Kabat numbering)
heavy: B1 heavy with D104T
chain: B1 chain
light: B1 light
notes: one-arm antibody
B6: CE115HA000 G100bY one-arm antibody (antibody, human IgG1, kappa, L234A L235A, N297A, name in Kabat numbering)
heavy: B1 heavy with D104G, G108Y
chain: B1 chain
light: B1 light
notes: one-arm antibody
B7: CE115HA000 G98Q one-arm antibody (antibody, human IgG1, kappa, L234A L235A, N297A, name in Kabat numbering)
heavy: B1 heavy with D104Q
chain: B1 chain
light: B1 light
notes: one-arm antibody
B8: CE115HA000 K64D one-arm antibody (antibody, human IgG1, kappa, L234A L235A, N297A, name in Kabat numbering)
heavy: B1 heavy with K67D, D104G
chain: B1 chain
light: B1 light
notes: one-arm antibody
B9: CE115HA000 L78I one-arm antibody (antibody, human IgG1, kappa, L234A L235A, N297A, name in Kabat numbering)
heavy: B1 heavy with L81I, D104G
chain: B1 chain
light: B1 light
notes: one-arm antibody
B10: CE115HA000 H96R one-arm antibody (antibody, human IgG1, kappa, L234A L235A, N297A, name in Kabat numbering)
heavy: B1 heavy with H102R, D104G
chain: B1 chain
light: B1 light
notes: one-arm antibody
B11: CE115HA000 K75R one-arm antibody (antibody, human IgG1, kappa, L234A L235A, N297A, name in Kabat numbering)
heavy: B1 heavy with K78R, D104G
chain: B1 chain
light: B1 light
notes: one-arm antibody
B12: CE115HA000 H96G one-arm antibody (antibody, human IgG1, kappa, L234A L235A, N297A, name in Kabat numbering)
heavy: B1 heavy with H102G, D104G
chain: B1 chain
light: B1 light
notes: one-arm antibody
B13: CE115HA000 G100bE one-arm antibody (antibody, human IgG1, kappa, L234A L235A, N297A, name in Kabat numbering)
heavy: B1 heavy with D104G, G108E
chain: B1 chain
light: B1 light
notes: one-arm antibody
B14: CE115HA000 G98Y one-arm antibody (antibody, human IgG1, kappa, L234A L235A, N297A, name in Kabat numbering)
heavy: B1 heavy with D104Y
chain: B1 chain
light: B1 light
notes: one-arm antibody
B15: CE115HA000 N82aD one-arm antibody (antibody, human IgG1, kappa, L234A L235A, N297A, name in Kabat numbering)
heavy: B1 heavy with N86D, D104G
chain: B1 chain
light: B1 light
notes: one-arm antibody
B16: CE115HA000 H96S one-arm antibody (antibody, human IgG1, kappa, L234A L235A, N297A, name in Kabat numbering)
heavy: B1 heavy with H102S, D104G
chain: B1 chain
light: B1 light
notes: one-arm antibody
B17: CE115HA000 G100bL one-arm antibody (antibody, human IgG1, kappa, L234A L235A, N297A, name in Kabat numbering)
heavy: B1 heavy with D104G, G108L
chain: B1 chain
light: B1 light
notes: one-arm antibody
B18: CE115HA000 N76S one-arm antibody (antibody, human IgG1, kappa, L234A L235A, N297A, name in Kabat numbering)
heavy: B1 heavy with N79S, D104G
chain: B1 chain
light: B1 light
notes: one-arm antibody
B19: CE115HA000 G98H one-arm antibody (antibody, human IgG1, kappa, L234A L235A, N297A, name in Kabat numbering)
heavy: B1 heavy with D104H
chain: B1 chain
light: B1 light
notes: one-arm antibody
B20: CE115HA000 H96K one-arm antibody (antibody, human IgG1, kappa, L234A L235A, N297A, name in Kabat numbering)
heavy: B1 heavy with H102K, D104G
chain: B1 chain
light: B1 light
notes: one-arm antibody
B21: CE115HA000 H96Q one-arm antibody (antibody, human IgG1, kappa, L234A L235A, N297A, name in Kabat numbering)
heavy: B1 heavy with H102Q, D104G
chain: B1 chain
light: B1 light
notes: one-arm antibody
B22: CE115HA000 K64S one-arm antibody (antibody, human IgG1, kappa, L234A L235A, N297A, name in Kabat numbering)
heavy: B1 heavy with K67S, D104G
chain: B1 chain
light: B1 light
notes: one-arm antibody
B23: CE115HA000 G100bD one-arm antibody (antibody, human IgG1, kappa, L234A L235A, N297A, name in Kabat numbering)
heavy: B1 heavy with D104G, G108D
chain: B1 chain
light: B1 light
notes: one-arm antibody
B24: CE115HA000 K64A one-arm antibody (antibody, human IgG1, kappa, L234A L235A, N297A, name in Kabat numbering)
heavy: B1 heavy with K67A, D104G
chain: B1 chain
light: B1 light
notes: one-arm antibody
B25: CE115HA000 G100bS one-arm antibody (antibody, human IgG1, kappa, L234A L235A, N297A, name in Kabat numbering)
heavy: B1 heavy with D104G, G108S
chain: B1 chain
light: B1 light
notes: one-arm antibody
B26: CE115HA000 K64Q one-arm antibody (antibody, human IgG1, kappa, L234A L235A, N297A, name in Kabat numbering)
heavy: B1 heavy with K67Q, D104G
chain: B1 chain
light: B1 light
notes: one-arm antibody
B27: CE115HA000 G100bF one-arm antibody (antibody, human IgG1, kappa, L234A L235A, N297A, name in Kabat numbering)
heavy: B1 heavy with D104G, G108F
chain: B1 chain
light: B1 light
notes: one-arm antibody
B28: CE115HA000 G98P one-arm antibody (antibody, human IgG1, kappa, L234A L235A, N297A, name in Kabat numbering)
heavy: B1 heavy with D104P
chain: B1 chain
light: B1 light
notes: one-arm antibody
B29: CE115HA000 G98R one-arm antibody (antibody, human IgG1, kappa, L234A L235A, N297A, name in Kabat numbering)
heavy: B1 heavy with D104R
chain: B1 chain
light: B1 light
notes: one-arm antibody
B30: CE115HA000 G98S one-arm antibody (antibody, human IgG1, kappa, L234A L235A, N297A, name in Kabat numbering)
heavy: B1 heavy with D104S
chain: B1 chain
light: B1 light
notes: one-arm antibody
B31: CE115HA000 G98K one-arm antibody (antibody, human IgG1, kappa, L234A L235A, N297A, name in Kabat numbering)
heavy: B1 heavy with D104K
chain: B1 chain
light: B1 light
notes: one-arm antibody
B32: CE115HA000 H96Y one-arm antibody (antibody, human IgG1, kappa, L234A L235A, N297A, name in Kabat numbering)
heavy: B1 heavy with H102Y, D104G
chain: B1 chain
light: B1 light
notes: one-arm antibody

The binders below were run against T1, CD3 epsilon homodimer protein (UniProt P07766 23-126) (assay: SPR (Biacore T200), CD3 epsilon homodimer on CM4 chip, one-arm antibody as analyte; ratio to unaltered CE115HA000;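 also: surface plasmon resonance run at 25 °C with HBS-EP+ as running buffer, CD3 epsilon homodimer attached by amine coupling, antibody passed over as analyte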).
T1 construct: Construct of the homodimer protein is not described; also called CD3 (CD3 epsilon)
T1 sequence (P07766 23-126): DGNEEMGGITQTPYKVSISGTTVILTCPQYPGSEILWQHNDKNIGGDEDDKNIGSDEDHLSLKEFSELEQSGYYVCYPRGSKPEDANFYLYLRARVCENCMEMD

Binder	KD ratio (KD value of CE115HA000/KD value of the altered form)
B1	2.36
B2	0.75
B3	0.84
B4	3.14
B5	0.93
B6	51.4
B7	1.04
B8	0.76
B9	1.08
B10	1.59
B11	0.88
B12	0.8
B13	7.29
B14	2.75
B15	0.56
B16	1.15

Binder	KD ratio (KD value of CE115HA000/KD value of the altered form)
B17	5.84
B18	0.84
B19	1.14
B20	1.56
B21	1.36
B22	0.85
B23	6.25
B24	0.81
B25	1.25
B26	0.87
B27	4.37
B28	0.88
B29	4.69
B30	0.98
B31	4.85
B32	6.67
